Assay results as given in the supplement of paper PMC12042874.
± gives the uncertainty stated by the source.

Assay: amyloid nucleation score (Sup35N fusion, yeast selection) (log enrichment); library NNK1; higher = more nucleation; inactive = no reads after selection
Outline: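 Psi-negative yeast expressed Sup35N fused to peptides of 20 random codons. They were induced 24 hours with 100 μM copper sulfate, grown 7 days at 30°C without adenine and uracil, and their plasmid inserts from input and output were Illumina-sequenced. The nucleation score is the DiMSum log enrichment of output over input reads, centred on the mode score of non-aggregating sequences. Sequences with under 100 input reads were excluded.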

Row | Substance | amyloid nucleation score
1 | KLLIP | -1.17 ± 0.58
2 | KLLSTDNLYVQSYLFEDCNR | -0.544 ± 0.59
3 | KLMVWITFGSWSRVGHWKGI | -0.387 ± 1.2
4 | KLNGNINFCFNCGNSGF | 7.27 ± 0.046
5 | KLQIPLGQVSLGSKVMKTGV | -1.08 ± 2.4
6 | KLRRSIDTCNVYVWS | -0.593 ± 0.23
7 | KLSRDFRGFYRT | inactive
8 | KLWFVGSLYSGNVQVYVVVP | 4.49 ± 0.061
9 | KLWVNNQS | 0.198 ± 0.57
10 | KNFYDIKPLYALYSENLRLH | 0 ± 0.46
11 | KNMAYHDSLDSVYPAVG | 0.32 ± 0.57
12 | KNQKMVYTRIGLPGFG | -0.42 ± 0.56
13 | KPLLTQQK | -0.356 ± 0.54
14 | KQECQYCWSG | -1.15 ± 0.36
15 | KRFTRTNILRMTCT | 0.901 ± 0.48
16 | KRLRTKFYVVLYFSYMSSTL | -1.52 ± 1.5
17 | KRLTMVVRGKLSVLHP | 3.74 ± 0.12
18 | KRSKN | 1.37 ± 0.8
19 | KRSSFYHWQWHGKSL | -0.718 ± 0.51
20 | KRVIAMLTLIFG | 0.534 ± 0.64
21 | KSAEIKEQCTTWFMYTMLGA | -0.785 ± 0.44
22 | KSDRIKLYNKCWELAVLMKK | -0.555 ± 1.1
23 | KSGLRTLFSGVGHCWDALVY | 0.198 ± 0.45
24 | KSGVRYNRGRKYASTQ | -0.302 ± 0.39

Row | Substance | amyloid nucleation score
25 | KSLENDHIVSVCSFLISRTR | 3.97 ± 0.081
26 | KSLVKYKWNLTFILY | inactive
27 | KSSCRDLIVDVNTGE | 0.765 ± 0.38
28 | KSTSRPCHWIYWMWMVYPRY | 0.445 ± 0.81
29 | KSWWNDVFVYVYQILEFHCR | 0.032 ± 1.2
30 | KTASLRRVG | -0.071 ± 0.32
31 | KTLRNNLLFIQSTPK | 0.1 ± 0.28
32 | KTRSNMNFHCS | 0.195 ± 0.6
33 | KTSCQSFVGR | -0.403 ± 0.54
34 | KTVVSELSVVNEVVA | -0.359 ± 0.31
35 | KVAHCCSDMYSWRVGKMMSM | 0.024 ± 0.79
36 | KVCAVTM | 0.095 ± 0.3
37 | KVFVSALCC | 4.19 ± 0.067
38 | KVGHANVADFPIWRRNLFG | -0.544 ± 0.84
39 | KVGLDIWGASGTN | 0.525 ± 0.48
40 | KVGLSMKYRPYS | 2.29 ± 0.22
41 | KVHTGTSTRLKLYMHSTLRT | 0.454 ± 0.25
42 | KVIFYEFPTSQRFMGSMYDM | 1.88 ± 0.19
43 | KVSEDMYSHFQQSFSQAIIV | inactive
44 | KVTLNFRSHSLENCDAYNKY | 3.15 ± 0.12
45 | KVYYRVKMHYSLAGEARTDT | 0.621 ± 0.84
46 | KWCISKSFFVYPTMMR | 0.437 ± 0.44
47 | KWGHSENVVVYFDGAFSWVS | 0.16 ± 0.6
48 | KWIGIYINFDGYSVGS | 7.598 ± 0.044

Row | Substance | amyloid nucleation score
49 | KWILVRSLESIHKPTL | 0.174 ± 0.89
50 | KWLLTDDLRSGISAWWECPL | -0.233 ± 0.62
51 | KWLTFVMDMSDLCYSSFNVN | inactive
52 | KWSPIAGSTMIMEMCH | -1.08 ± 0.83
53 | KWYGILNVVDDRRSIGRYDM | -0.281 ± 0.58
54 | KYDRCYYSRMNPSCVYIPYS | 2.47 ± 0.4
55 | KYFGFSVHSLLCYNRSLFLS | -0.055 ± 0.35
56 | KYIRISVDGIRFKEWCEFGS | 0.777 ± 0.14
57 | KYKESMYLRLCFRYVWTNYS | 0.441 ± 0.61
58 | KYLACILCSKLLTQSNSRNI | 7.687 ± 0.058
59 | KYLSYTVVCGLTNDSWHLMH | -0.196 ± 0.46
60 | KYLVLHILHIWMCHRYVWGM | -0.973 ± 0.6
61 | KYPSKSSELSGYEDSRNFVG | 0.806 ± 0.62
62 | KYRDLGSFMQSWAARHGTLL | -0.226 ± 0.68
63 | KYYMSLDFWGHALH | 2.76 ± 0.15
64 | LACWLTTRNKCILNSLITLV | 0.08 ± 1.1
65 | LAFTSLSNLYEDMCYQDWMV | 1.82 ± 0.36
66 | LAGNVS | 0.503 ± 0.67
67 | LALGPLHSVLRGVINMGYGI | -0.88 ± 1.7
68 | LAMRAMIRNVLFTKSQLHDR | -0.154 ± 0.38
69 | LAPGGDWYY | inactive
70 | LAPMDLCGGSVAFR | 0.47 ± 0.4
